In patent US20110009597A1, “RECOMBINANT GANODERMA LUCIDIUM IMMUNOMODULATORY PROTEIN (rLZ-8) AND USES THEREOF” (priority 2008, published 2011):

Columns and labels:
NB4 = assay: Annexin V-FITC flow cytometry, apoptosis of NB4; type: cell-based; conditions: Annexin V/PI
Experimental: FACS Calibur flow cytometry, U.S. Becton-Dickinson.Coompany. NB4, HL-60. rLZ-8 is prepared with IMDM culture medium containing 2% FCS into the preparation of 0.1 μg·ml^−1, 0.5 μg·ml^−1, 2.5 μg·ml^−1, arsenic trioxide (As2O3) 0.5 μg·ml^−1 AnnexinV-FITC kit: combining buffer solution 4×; Propidium iodide solution (PI), 20 μg·ml−1, 0.2 ml; recombinant human Annexin V/FITC, 0.1 ml.
Establish NB4 normal control group, positive drug group (As2O3 0.5 μg·ml^−1), protein low-dose group (0.1 μg·ml^−1), medium-dose group (0.5 μg·ml^−1), high-dose group, (2.5 μg·ml^−1); establish HL-60 normal control group, protein low-dose group (0.1 μg·ml^−1), medium-dose group (0.5 μg·ml^−1), high-dose group, (2.5 μg·ml^−1).
Mix NB4 and HL-60 cell into 24-orifice plate respectively, 1 ml/hole supply rLZ-8 in different concentrates, set 3-orifice multipunches for each group. Put them in 37° C., 5% CO2 incubator for 24 h, collect the cells of each concentrate, washes the cells twice with pre-cooled PBS 4° C., with 250 μl binding buffer solution re-suspending cells and regulates the cell density to 1×10^6/ml, taking out 100 μl to 5 ml streaming tube, and add 5 μl Annexin V/FITC and 10 μl 20 μg·ml^−1 PI solution, after mixing put it in room temperature and lucifuged hatching 15 min, add 400 μl PBS by flow cytometry analysis.

WBC = assay: Prevention of radiation leucopenia model of mice, WBC; type: in vivo; design: unit not given here; conditions: for WBC, 5th day (rLZ-8): 5th day of administration before radiation; for WBC, 5th day / WBC, 7th day: after 7.5 Gy γ-ray
Experimental: rLZ-8 preparation of sterile saline. Divide them into 5 μg·kg^−1, 2.5 μg·kg^−1, 1.25 μg·kg^−1, 0.62 μg·kg^−1 dose groups. 0.2 ml/vial.
Genlei™ Scimax™ [Recombinant human granulocyte colony-stimulating factor injection (rhG-CSF)], production lot: 20060403; 150 μg/vial is prepared with sterile normal saline into the preparation of 3.2 μg·kg^−1, 0.2 ml/vial.
The mice were irradiated by 7.5 Gy γ-ray (180 mV, 15 mA) and then divided into seven groups (n=10): (A) negative control; (B) 5 μg·kg−1 dose; (C) 2.5 μg·kg−1 dose; (D) 1.25 μg·kg−1 dose; (E) 0.62 μg·kg−1 dose; (F) positive control (Genlei™ Scimax™); (G) model group. Before modeling 5 days, mice in each group were administered with Genlei™ Scimax™ and rLZ-8 for 5 days, on the 5th day, mice were radiated, for 5 days, and on the 7th day, drew blood from tail, tested the number of WBC, weight spleen, calculated index of spleen.

[1] = system: mouse peritoneal H22 tumor cells; assay: H22 ascites tumor inhibition experiment; type: in vivo, Mice
Experimental: Mouse hepatoma cell strain H22, offered by our laboratory.
Treatment after 24 h of vaccination. […] Daily weighing, observe the weight changes of mice, drawing weight growth curves.

S180 cells = assay: Mouse transplanted S180 subcutaneous tumor inhibition; type: in vivo, Mice; conditions: 10 days
Experimental: Mice, 18-22 g, males and females were equally divided, provided by Jilin University Laboratory Animal Center; Mice Ehrlich ascites cells strain, provided by our laboratory S180; Cyclophosphamide (CTX), offered by Jiangsu Hengrui Medicine Co., Ltd., lot number: 06101921. S180 ascites tumors and solid tumors in experiment group were divided into normal control group, negative control group, positive control group, rLZ-8 low-dose treatment group (0.25 mg·kg^−1), rLZ-8 medium-dose treatment group (0.5 mg·kg^−1), rLZ-8 high-dose treatment group (1 mg·kg^−1). For each group 10 mice.
Select well-growing S180 cells, dilute appropriately with sterile saline into a tumor cell suspension, cell counts for 10^7·L^−1, under the right armpit of each mouse inoculated subcutaneously 0.2 ml (except for the normal control group). Treatment after 24 h of vaccination. Normal control group and negative control group were given saline 0.2 ml·each^−l·d^−1, intraperitoneal injection; positive control group were given cyclophosphamide 20 mg·kg^−1, intraperitoneal injection. rLZ-8 treatment groups were given doses of tail venous injection respectively, 0.2 ml·each^−1·d^−1, in 10 consecutive days. Draw blood from orbital venous plexus 10 days before and after medication respectively, sent to Jilin University No. 1 Hospital clinical laboratory to test and analyze the number of WBC. Kill all mice the next day of drug withdrawal at cervical dislocation, dissect anatomically and take out the tumors, weigh tumors, calculate the inhibition rate using the following equation:
Inhibition rate (%)=(average tumore weight of the control group−average tumore weight of the experiment group)/average tumor weight of the control group×100%

[2] = rLZ-8 0.25 mg·kg^−1 tail venous injection
[3] = rLZ-8 0.5 mg·kg^−1 tail venous injection
[4] = rLZ-8 1 mg·kg^−1 tail venous injection

B1: rLZ-8: Recombinant Ganoderma Lucidum Immune Regulatory Protein expressed in Pichia pastoris (protein, UniProt P14945 2-111, looked up)
Immunomodulatory protein Ling …: SDTALIFRLAWDVKKLSFDYTPNWGRGNPNNFIDTVTFPKVLTDKAYTYRVAVSGRNLGVKPSYAVESDGSQKVNFLEYNSGYGIADTNTIQVFVVDPDTNNDFIIAQWN
- Apoptosis rate (NB4; NB4, rLZ-8 0.1 μg·ml−1, 24 h): 21.0%
- Apoptosis rate (NB4; NB4, rLZ-8 0.5 μg·ml−1, 24 h): 22.3%
- Apoptosis rate (NB4; NB4, rLZ-8 2.5 μg·ml−1, 24 h): 34.0%
- WBC, 5th day (rLZ-8) (WBC; rLZ-8 0.62 μg·kg^−1): 10.7 ± 0.45
- WBC, 5th day (WBC; rLZ-8 0.62 μg·kg^−1): 0.16 ± 0.31
- WBC, 7th day (WBC; rLZ-8 0.62 μg·kg^−1): 0.40 ± 0.12
- WBC, 5th day (rLZ-8) (WBC; rLZ-8 1.25 μg·kg^−1): 12.5 ± 0.45
- WBC, 5th day (WBC; rLZ-8 1.25 μg·kg^−1): 0.25 ± 0.11
- WBC, 7th day (WBC; rLZ-8 1.25 μg·kg^−1): 0.46 ± 0.11
- WBC, 5th day (rLZ-8) (WBC; rLZ-8 2.5 μg·kg^−1): 12.8 ± 0.54
- WBC, 5th day (WBC; rLZ-8 2.5 μg·kg^−1): 0.32 ± 0.15
- WBC, 7th day (WBC; rLZ-8 2.5 μg·kg^−1): 0.45 ± 0.20
- WBC, 5th day (rLZ-8) (WBC; rLZ-8 5 μg·kg^−1): 19.5 ± 0.32
- WBC, 5th day (WBC; rLZ-8 5 μg·kg^−1): 0.32 ± 0.18
- WBC, 7th day (WBC; rLZ-8 5 μg·kg^−1): 0.53 ± 0.35
- growth of peritoneal H22 tumor cells (body weight curve) ([1]; rLZ-8 0.25-1 mg·kg^−1 tail venous injection, 10 days): inhibited the mouse peritoneal H22 tumor cells growth
- survival of H22 ascites mice ([1]; rLZ-8 groups vs negative control group): survive longer than the negative control group
- Inhibition rate (%) (S180 cells; [2]): 16.8%
- Tumor weight (S180 cells; [2]): 0.84 ± 0.03 g
- Inhibition rate (%) (S180 cells; [3]): 25.7%
- Tumor weight (S180 cells; [3]): 0.75 ± 0.02 g
- Inhibition rate (%) (S180 cells; [4]): 45.5%
- Tumor weight (S180 cells; [4]): 0.55 ± 0.03 g
